Laboratory results reported in the nanobody polyreactivity screen of Harvey et al. (2022).

Assay: yeast display, Sf9 membrane polyspecificity reagent, FACS + sequencing; frameworks hold sequencing errors
Outline: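 Genes from sorted yeast were amplified by colony PCR, read by MiSeq 2 × 250 sequencing and filtered on CDR length. These cells carried a synthetic nanobody library in Saccharomyces cerevisiae BJ5465 and were sorted by FACS into low and high (top ~1%) gates on anti-HA and streptavidin fluorescence. Polyreactivity is labelled according to the gate of origin.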

| Sequence | polyreactivity (PSR sort gate) |
| --- | --- |
| QVQLVESGGGLVQAGGSLRLSCAASGFTYGANTMGWYRQAPGKERELVADISVRGDRTSYADSVKGRFTISRDNAKNTVYLPMNSLKPEDTAVYYCATDIYQHAKRRYDYWGQGTQVTVSS | low polyreactivity |
| QVQLVESGGGLVQAGGSLRLSCAASGFTYGINAMGWYRQAPGKERELVASISSGSSTTYADSVKGRFTISRDNATNTVYLQMISLKPEDTAVYYCNARPFHIYWRYDYWGQGTQVTVSS | low polyreactivity |
| QVQLVESGGGLVQAGGSLRLSCAASGFTYGRYAMGWYRQAPGKERELVAVISWSGVSTYYADSVKGRFTISRDNAKNTVYLQMNSLKPEDTAVYYCNKRSYHYPYGYDYWGQGTQVTVSS | high polyreactivity |
| QVQLVESGGGLVQAGGSLRLSCAASGFTYLRYAMGWYRQAPGKERELVAAISFSGDTTNYADSVKGRFTISRDNAKNTVYLQMNSLKPEDTAVYYCAASYGGGYYSDRGYYYWGQGTQVTVSS | low polyreactivity |
| QVQLVESGGGLVQAGGSLRLSCAASGFTYLYAMGWYRQAPGKESELDAAISYSGGSTYYADSVKGRFTISRDNAKNTVYLQMNSMKPEDTAVYYCAAGYGTVRGVSYDYWGQGTQVTVSS | low polyreactivity |
| QVQLVESGGGLVQAGGSLRLSCAASGFTYPPYAMGWYRQAPGKERELVAAISSAGSTKYADSVKGRFTISRDNAKNTVYLQMNSLKPEDTAVYYCAARWARSYDYWGQGTQVTVSS | low polyreactivity |
| QVQLVESGGGLVQAGGSLRLSCAASGGIDYTNAMGWYRQAPGKERELVAAIRKNGDSTNYADSVKGRFTISRDNAKNTVYLQMNSLKPEDTAVYYCNAELWPWAYDYWGQGTQVTVSS | low polyreactivity |
| QVQLVESGGGLVQAGGSLRLSCAASGGIFALNDMGWYRQAPGKERELVAAINGAGTYYADSVKGRFTISRDNAKNTVYLQMNSLKPEETAVYYCARRWLHWEYARTWTRVEYDYWGQGTQVTVSS | low polyreactivity |
| QVQLVESGGGLVQAGGSLRLSCAASGGIFARNVMGWYRQAPGKERELVAAISGSGGSTYYADSVKGRFTISRDNAKKTVYLQMNSLKPEDTAVYYCAARTPGVSVYKDGYWGQGTQVTVSS | low polyreactivity |
| QVQLVESGGGLVQAGGSLRLSCAASGGIFAVYAMGWYRQAPGKERELVAAITWRGGSTRYADSVKGRFTISRDNAKTTVYLQMNSLKPEDTAVYYCAVRSTGYPSRYYFWGQGTQVTVSS | high polyreactivity |
| QVQLVESGGGLVQAGGSLRLSCAASGGIFDFYAMGWYRPAPGKERELVAAITRSGSSTFYADSVKGRFTLSRDNAKNTVDLQMNSLKPEDTAIYYCAADYSHLPIAWYYYWGQGTQVTVSS | low polyreactivity |
| QVQLVESGGGLVQAGGSLRLSCAASGGIFDFYAMGWYRQAPGKERELVAAITRSGSSTFYADSVKGRFTISRDNAKNTVYLQMNSLKPEDTAVYYCATRPTSDFVKRRVYEWLDYWGQGTQVTVSS | low polyreactivity |
| QVQLVESGGGLVQAGGSLRLSCAASGGIFDRYAMGWYRQAPGKERELVAAITSGGSTNYADSVKGRFTISRDNAKNTVYLQMISLKPEDTAVYYCNADLGILSGVAEGPTFREYDYWGQGTQVTVSS | low polyreactivity |
| QVQLVESGGGLVQAGGSLRLSCAASGGIFDTYAMGWYRQAPGKERELVAAISSTGGSSYYADSVKGRFTISRDNAKNTVYLQMNSLKPEDTAVYYCNAVLARFWRYRRWEYDYWGQGTQVTVSS | high polyreactivity |
| QVQLVESGGGLVQAGGSLRLSCAASGGIFDVYAMGWYRQAPGKERELVAAITASGGSTYYADSVKGRFTISRDNAKNTVYLQMNSLKPEDTAVYYCNAYYYYLFHRYDYWGQGTQVTVSS | low polyreactivity |
| QVQLVESGGGLVQAGGSLRLSCAASGGIFERNDMGWYRQAPGKERELVAGISSVGSTNYADSVKGRFTISRDNAKNTVYLQMNSLKPEDTAVYYCAAPTKREFRYLRYDYWGQGTQVTVSS | low polyreactivity |

| Sequence | polyreactivity (PSR sort gate) |
| --- | --- |
| QVQLVESGGGLVQAGGSLRLSCAASGGIFGGYAMGWYRQAPGKAGALVAVITSGGSTYYADSVKGRFTISRDNAKNTVYLQMNSLKPEDTAVYYCAADGHSYSYSTYDYWGQGTQVTVSS | low polyreactivity |
| QVQLVESGGGLVQAGGSLRLSCAASGGIFGPYAMGWYRQAPGKERELVATITRNGGSTRYADSVKGRFTISRDNAKNTVYLQMNSLKPEDTAVYYCAARGYLDMGYWGQGTQVTVSS | high polyreactivity |
| QVQLVESGGGLVQAGGSLRLSCAASGGIFGQYTMGWYRQAPGKERELVAGISKRGTLTRYADSVKGRFTISRDNAKNTVYLQMNSLKPEYSAVYYCNADYVGFFWEYDYWGQGTQVTVSS | high polyreactivity |
| QVQLVESGGGLVQAGGSLRLSCAASGGIFGSYAMAWYRQAPGKERELVAAISWTGGSTYYADSVKGRFTISRDNAKNTVYLQMNSLKPEDTAVYYCNADTYRRAQLRFNSWGQGTQVTVSS | low polyreactivity |
| QVQLVESGGGLVQAGGSLRLSCAASGGIFGYYVMGWYRQAAGNERELVAVITRGGSTNYADSVKGRFTISRDNAKNTVYLQMNSLKPEDTAVYYCAKDVPYRRVRSEYWGQGTQVTVSS | low polyreactivity |
| QVQLVESGGGLVQAGGSLRLSCAASGGIFIKYAIGWYRPAPGKERELVAAITYSGGSTYYADSVKGRFTISRDNAKNTVYLQMNCLKPEDTAVYYCAADTLRQYDYEYWGQGTQVTVSS | high polyreactivity |
| QVQLVESGGGLVQAGGSLRLSCAASGGIFKAYAMGWYRQAPGKERELVAVITIGGRTTYADSVKGRFTISRDNAKNTVYLQMNSLKPEDTAVYYCAKTNYNWLSTAEHDYWGQGTQVTVSS | low polyreactivity |
| QVQLVESGGGLVQAGGSLRLSCAASGGIFLDYVMGWYRPATGKQRELVAAISGSGGTNYADSVKGRFTISRDNAKNTVYLQMNSLKPEDTAVYYCAAVGYYSYSYYTKVGVDYWGQGTQVTVSS | high polyreactivity |
| QVQLVESGGGLVQAGGSLRLSCAASGGIFLVYTMGWYRQAPGKEREMVAAITSGGSTKYADSVKGRFTISRDNAKNTVYFQMNSLKPEDTAVYYCAAGVQYARYQARYFYWGQGTPVTVSS | high polyreactivity |
| QVQLVESGGGLVQAGGSLRLSCAASGGIFNRYAMGWYRPAPGKERELVAGITRSGGSTSYADSVKGRFTISRDNAKNTVYLQMNSLKPEDTAVYYCNKVAYYASSSYYRFGAYGYWGQGTQVTVSS | high polyreactivity |
| QVQLVESGGGLVQAGGSLRLSCAASGGIFPHYVMGWYRQAPGKERELVAAITWSGGRTYYADSVKGRFTISRDNAKNTVYLQMNSMKPEDTAVYYCAADPFYLTKSGGWGDYWGQGTQVTVSS | low polyreactivity |
| QVQLVESGGGLVQAGGSLRLSCAASGGIFPKNAMGWYRQAPGKERELVAAINWSGGTTNYADSVKGRFTISRDNAKNTVYLQMNSLKPEDTAVYYCAKQGLWIFVVVEMDYWGQGTQVNVSS | low polyreactivity |
| QVQLVESGGGLVQAGGSLRLSCAASGGIFPQYAMGWYRQAPGKERQLVAAISRRGGRTYYADSVKGRFTISRDNAKNTDYLQMNSLKPEDTAVYYCNAGGSSGYDYWGQGTQVTVSS | high polyreactivity |
| QVQLVESGGGLVQAGGSLRLSCAASGGIFPYYAMGWYRQAPGKERELVADISSGGSTYYADSVKGRFTISRDNAKNTVYLQMNSLKPEDTAVYYCAADAGQYFTYSGDDNHDYWGQGTQVTVSS | low polyreactivity |
| QVQLVESGGGLVQAGGSLRLSCAASGGIFRHNAMGWYRQAPGKERELVAAISRSGGNTYYADSVKGRFTISRDNAKNTVYLQMNSLKPEDTAVYYCNKIEYDSWADHVYWGQGTQVTVSS | low polyreactivity |
